Reference: US7078038 (INSTITUT DE RECHERCHE POUR LE DEVELOPPEMENT I R D, dated 2006)

Molecular target: T1, W338S gp120 (rgp120 of the HXB2 clone of HIV-IIIB with the W338S mutation) (HIV-1 (HXB2 clone of HIV-IIIB), UniProt P04578 33-511)
T1 construct: domain: gp120; Position counted in HxBc2 numbering; also called muted gp120; mutant gp120
Experiment: FACS on CEM cells: no labelling by anti-CXCR4 12GS after incubation with gp120

B1: CXCR4 receptor on the cell surface (receptor)
chain: MEGISIYTSDNYTEEMGSGDYDSMKEPCFREENANFNKIFLPTIYSIIFLTGIVGNGLVILVMGYQKKLRSMTDKYRLHLSVADLLFVITLPFWAVDAVANWYFGNFLCKAVHVIYTVNLYSSVLILAFISLDRYLAIVHATNSQRPRKLLAEKVVYVGVWIPALLLTIPDFIFANVSEADDRYICDRFYPNDLWVVVFQFQHIMVGLILPGIVILSCYCIIISKLSHSKGHQKRKALKTTVILILAFFACWLPYYIGISIDSFILLEIIKQGCEFENTVHKWISITEALAFFHCCLNPILYAFLGAKFKTSAQHALTSVSRGSSLKILSKGKRGGHSSVSTESESSSFHSS
notes: whole, on cells; also called CXCR4 co-receptor; CEM cells CD4+/CXCR4+
binding result: binds
